These results are taken from PMC10636567.

For test [1], the target named is human LGI1–FLAG (leucine-rich, glioma inactivated 1 protein) (human) (UniProt O95970). Kind of test: co-IP; HEK293T co-transfected; lysis 24 h after transfection in 20 mM Tris-HCl pH 8.0, 1 mM EDTA, 0.5% Fos-Choline-14; PSD-95-FLAG or LGI1-FLAG precipitated with FLAG-M2 agarose, washed with 100 mM NaCl, 1% Triton X-100, eluted with FLAG peptide; western blot, band intensities; n = 3. In general terms: In western blotting, separated proteins are transferred to a membrane and probed.
human LGI1–FLAG (leucine-rich, glioma inactivated 1 protein) (human), sequence (O95970 35-557): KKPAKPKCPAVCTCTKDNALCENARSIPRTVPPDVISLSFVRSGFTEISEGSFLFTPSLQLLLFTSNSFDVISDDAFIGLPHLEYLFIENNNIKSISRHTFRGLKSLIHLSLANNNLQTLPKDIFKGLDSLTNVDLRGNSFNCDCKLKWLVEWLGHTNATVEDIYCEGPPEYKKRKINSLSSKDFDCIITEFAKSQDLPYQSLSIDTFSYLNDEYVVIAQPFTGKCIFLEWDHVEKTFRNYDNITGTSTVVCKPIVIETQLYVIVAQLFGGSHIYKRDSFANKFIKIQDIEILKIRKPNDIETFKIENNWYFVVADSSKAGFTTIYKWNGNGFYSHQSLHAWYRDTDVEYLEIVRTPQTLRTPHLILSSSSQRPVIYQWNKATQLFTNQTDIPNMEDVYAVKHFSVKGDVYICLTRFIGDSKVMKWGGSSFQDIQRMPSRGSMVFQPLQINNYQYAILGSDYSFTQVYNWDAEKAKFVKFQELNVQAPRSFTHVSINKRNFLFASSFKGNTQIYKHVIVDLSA

The target of a further test is rat SAP102-GFP (rat) (UniProt Q62936). Kind of test: co-IP; HEK293T co-transfected; GFP-tagged MAGUK proteins precipitated with anti-GFP antibody; western blot.
rat SAP102-GFP (rat), sequence (Q62936 whole entry): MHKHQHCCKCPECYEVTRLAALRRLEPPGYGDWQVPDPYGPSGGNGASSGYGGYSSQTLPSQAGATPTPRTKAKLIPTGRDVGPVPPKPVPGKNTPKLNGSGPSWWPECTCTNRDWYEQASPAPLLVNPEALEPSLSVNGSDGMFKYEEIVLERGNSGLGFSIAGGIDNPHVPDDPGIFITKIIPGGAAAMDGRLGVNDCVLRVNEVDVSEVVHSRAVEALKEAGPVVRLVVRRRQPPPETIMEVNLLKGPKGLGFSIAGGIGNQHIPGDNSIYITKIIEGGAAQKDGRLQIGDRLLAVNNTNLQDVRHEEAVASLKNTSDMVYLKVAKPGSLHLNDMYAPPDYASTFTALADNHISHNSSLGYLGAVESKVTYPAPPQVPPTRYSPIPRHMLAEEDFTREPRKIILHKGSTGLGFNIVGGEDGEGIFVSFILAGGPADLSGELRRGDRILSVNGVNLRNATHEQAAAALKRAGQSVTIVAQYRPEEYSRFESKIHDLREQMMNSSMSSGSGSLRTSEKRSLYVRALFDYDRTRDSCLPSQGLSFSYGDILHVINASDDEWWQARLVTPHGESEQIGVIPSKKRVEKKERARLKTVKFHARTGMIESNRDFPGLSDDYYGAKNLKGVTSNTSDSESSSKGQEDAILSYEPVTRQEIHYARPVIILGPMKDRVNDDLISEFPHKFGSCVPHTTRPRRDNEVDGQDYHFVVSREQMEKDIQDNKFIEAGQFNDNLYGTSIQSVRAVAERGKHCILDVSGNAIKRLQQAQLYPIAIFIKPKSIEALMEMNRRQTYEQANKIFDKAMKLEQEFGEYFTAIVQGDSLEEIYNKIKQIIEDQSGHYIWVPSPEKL
Another test has as its target rat PSD-93-GFP (rat) (UniProt Q63622). Described as above.
Another test deals with rat PSD-95-FLAG (rat) (UniProt P31016). Kind of test: co-IP; HEK293T co-transfected; lysis 24 h after transfection in 20 mM Tris-HCl pH 8.0, 1 mM EDTA, 0.5% Fos-Choline-14; PSD-95-FLAG or LGI1-FLAG precipitated with FLAG-M2 agarose, washed with 100 mM NaCl, 1% Triton X-100, eluted with FLAG peptide; western blot, band intensities; n = 3.
rat PSD-95-FLAG (rat), sequence (P31016 whole entry): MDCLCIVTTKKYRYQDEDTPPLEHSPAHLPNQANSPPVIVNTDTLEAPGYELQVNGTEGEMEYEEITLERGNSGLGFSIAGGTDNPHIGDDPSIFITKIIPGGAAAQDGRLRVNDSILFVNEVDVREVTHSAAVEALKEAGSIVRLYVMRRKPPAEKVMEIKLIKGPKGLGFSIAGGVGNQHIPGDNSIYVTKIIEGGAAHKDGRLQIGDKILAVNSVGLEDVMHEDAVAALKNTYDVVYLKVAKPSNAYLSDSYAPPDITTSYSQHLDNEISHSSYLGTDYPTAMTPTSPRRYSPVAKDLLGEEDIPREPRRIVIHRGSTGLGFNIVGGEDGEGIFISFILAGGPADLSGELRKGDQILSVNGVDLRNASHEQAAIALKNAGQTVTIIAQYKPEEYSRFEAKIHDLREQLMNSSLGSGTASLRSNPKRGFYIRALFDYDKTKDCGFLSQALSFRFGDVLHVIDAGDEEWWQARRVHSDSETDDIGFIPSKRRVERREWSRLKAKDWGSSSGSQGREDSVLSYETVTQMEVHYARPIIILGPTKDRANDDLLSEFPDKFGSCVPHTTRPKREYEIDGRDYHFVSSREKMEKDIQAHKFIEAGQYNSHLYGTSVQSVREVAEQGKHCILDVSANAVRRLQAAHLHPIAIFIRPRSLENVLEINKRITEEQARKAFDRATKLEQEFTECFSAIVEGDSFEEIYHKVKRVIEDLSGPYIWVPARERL

rat PSD-93-GFP (rat), sequence (Q63622 whole entry): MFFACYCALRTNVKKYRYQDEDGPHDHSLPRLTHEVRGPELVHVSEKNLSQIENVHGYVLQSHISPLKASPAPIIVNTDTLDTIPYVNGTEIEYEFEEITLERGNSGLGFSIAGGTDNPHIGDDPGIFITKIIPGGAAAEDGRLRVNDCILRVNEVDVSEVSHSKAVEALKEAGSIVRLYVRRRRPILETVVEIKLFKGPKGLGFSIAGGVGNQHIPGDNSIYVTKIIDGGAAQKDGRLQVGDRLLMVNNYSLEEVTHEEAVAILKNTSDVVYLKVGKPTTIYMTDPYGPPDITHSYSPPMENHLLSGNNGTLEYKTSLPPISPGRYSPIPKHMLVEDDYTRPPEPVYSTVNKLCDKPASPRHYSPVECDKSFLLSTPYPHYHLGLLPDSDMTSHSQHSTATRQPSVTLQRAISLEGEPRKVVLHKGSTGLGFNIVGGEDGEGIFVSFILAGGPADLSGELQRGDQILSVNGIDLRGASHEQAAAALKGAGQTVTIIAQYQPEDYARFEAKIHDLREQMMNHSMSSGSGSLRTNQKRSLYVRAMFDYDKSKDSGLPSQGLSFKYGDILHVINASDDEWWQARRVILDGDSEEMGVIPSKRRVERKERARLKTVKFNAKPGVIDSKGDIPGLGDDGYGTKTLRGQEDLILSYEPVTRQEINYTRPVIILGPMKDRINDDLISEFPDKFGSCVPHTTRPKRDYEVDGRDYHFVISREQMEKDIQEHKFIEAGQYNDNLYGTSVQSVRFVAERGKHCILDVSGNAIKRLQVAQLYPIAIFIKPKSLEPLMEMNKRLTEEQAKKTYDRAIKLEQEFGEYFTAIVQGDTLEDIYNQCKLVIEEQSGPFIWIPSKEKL

On to “ADAM22 C401Y variant (from UniProt Q9P0K1 26-906) (receptor)”, for which the co-immunoprecipitated amount, percent of wild type in test [1] was 40%.

On to “human ADAM22 S905F variant (from UniProt Q9P0K1-1 26-906) (receptor)”, for which the co-immunoprecipitated amount, percent of wild type with rat SAP102-GFP (rat) worked out at 20%; with rat PSD-93-GFP (rat), 20%; in test [1], 75%; in the test with rat PSD-95-FLAG (rat), 20%.
